The values below come from patent publication CN106928350A (TIANJIN INST IND BIOTECHNOLOGY CAS; SUZHOU GENEWIZ …, dated 2017).

The target of this experiment is T1, HA of H3 (A/Aichi/2/1968)/PR8 H3N1 (PR8-RS) (Influenza A virus A/Aichi/2/1968 (H3), UniProt P03437 17-566).
T1 construct: whole, on cells; also called A/Aichi/2/1968 H3N1-RG
In words: immunofluorescence on virus-infected MDCK cells, antibody 40μg/mL.

B1: AF4H1K1 (antibody, V domains shown)
VH: QVQLVESGGGVVQPGTSLRLSCEASGFTSSAYAMHWVRQAPGKGLEWVAVITFDGGYQYYADSVKGRFTISRDISRNTLHLHMNSLRAEDTAVYYCARDPLTKLLPFDWVSGGYFDYWGQGTLVTVSS
VL: not shown
notes: also called AF4H1K1 IgG; AF4H1K1IgG
As for B1, the binding result is “binds”.
